# Measured values as given in paper PMC5409451.
# Assays:
# [1] = target: EV71 2C 116–329 E325A (enterovirus 71); assay: SEC
# [2] = target: EV71 2C 116–329 (enterovirus 71) (UniProt Q66478); assay: SEC
Substance,stoichiometry N [1],stoichiometry N [2]
EV71 2C 116–329 E325A (domain or fragment),2,–
EV71 2C 116–329 (from UniProt Q66478 117-330) (domain or fragment),–,4
